Results on two molecules are retold here after paper PMC8351736 (Molecular Biology of the Cell, 2021).

For experiment [1], the target named is T1, 6-histidine-tagged actin capping protein (His-Cap1/2 heterodimer) (S. cerevisiae, UniProt P28495 1-268; P13517 1-287).
T1 sequence (looked up) 1: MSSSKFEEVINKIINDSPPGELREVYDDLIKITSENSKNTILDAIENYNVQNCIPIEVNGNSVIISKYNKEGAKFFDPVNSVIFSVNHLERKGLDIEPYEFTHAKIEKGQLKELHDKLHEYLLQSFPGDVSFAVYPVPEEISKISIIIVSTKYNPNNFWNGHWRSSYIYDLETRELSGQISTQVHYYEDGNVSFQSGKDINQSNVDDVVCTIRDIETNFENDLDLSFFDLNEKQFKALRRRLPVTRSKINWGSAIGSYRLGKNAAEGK
T1 sequence (looked up) 2: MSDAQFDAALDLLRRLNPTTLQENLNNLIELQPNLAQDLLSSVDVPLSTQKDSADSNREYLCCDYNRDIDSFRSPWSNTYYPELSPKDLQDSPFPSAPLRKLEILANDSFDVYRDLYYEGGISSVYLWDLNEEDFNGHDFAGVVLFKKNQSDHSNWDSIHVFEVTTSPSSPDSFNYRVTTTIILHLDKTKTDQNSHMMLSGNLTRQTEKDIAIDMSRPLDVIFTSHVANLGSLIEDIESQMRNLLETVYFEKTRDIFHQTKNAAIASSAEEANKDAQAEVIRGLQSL
Briefly: pull-down.

Experiment [2] has as its target T2, 6-histidine-tagged Tda2 (His-Tda2) (S. cerevisiae, UniProt P40045 2-126).
T2 sequence: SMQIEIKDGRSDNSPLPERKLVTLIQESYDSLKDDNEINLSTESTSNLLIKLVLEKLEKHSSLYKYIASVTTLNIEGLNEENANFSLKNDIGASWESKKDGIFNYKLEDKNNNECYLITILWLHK
Briefly: pull-down.

B1: Aim21^1-535-GST (domain or fragment, S. cerevisiae, UniProt P40563 1-535, looked up)
chain: MPSEVTPKVPERPSRRKTSELFPLSGSESGDIKANSEPPTPAGTPNVPTRRPILKAKTMTSFESGMDQESLPKVPLQRPVRRSTTEELNNVMNNTSKELEEIESLISKHNIHNVSRKKSPTSVEEGKVAAIHQNGQRSASDNKTSTNPSPLEKNEHEGAEGNESAISPSNLVNKSNNEVTEHSDSEDLTEKQKVHAALDNEAGDRSHFEEKLIPGDMKVQVDVSKDVEEGSLNALPPSGITESDDKAEKFTKHPESSLEELQKHQEQQEEKIFQNPTDEESTTSLNEKQEGKDNMEVNSQPQGPSDTETVIAATSSNVPSQIASEEENDVPVIPRSRPKKDFEAHVQKEELPNTQEKRVSEECDSTLISTEEESKIPKIPSERPKRRAPPPVPKKPSSRIAAFQEMLQKQQQQDLHNNGNSSATTASADIAKKHTDSSITSDTTKADFTSKLNGLFALPGMVNPGQLPPSLEKKLSSPDTESKLGPQDQSQAKTGPLGGTRRGRGPRGRKLPSKVASVEKIEEDDNTNKIEIFNN
Consider B1, for which, in experiment [1], the binding result is “binds”.

B2: GST-Aim21^510-555 F533A (domain or fragment, S. cerevisiae, UniProt P40563 510-555, looked up)
chain: KLPSKVASVEKIEEDDNTNKIEIANNWNVSSSFSKEKVLIDTTPGE
Turning to B2, the binding result in experiment [2] was “binds”.
